Experimental findings from the supplement of paper PMC10567573 are described below.

The labels stand for the following.
B1: SNAP91 (parent)
chain: FSTDAFSSPPQGASPVPESSLTAD
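Further: lentivirally expressed fusions sorted by FACS into six bins by GFP to DsRed ratio, PSI derived from sequencing read proportions per bin multiplied by bin number.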

The data set covers variants of B1. As to the kind of experiment: protein stability index of a GFP-peptide fusion (GPS, HEK-293T) (PSI 1-6); higher = more stable. As to conditions: c terminus: a fixed tail appended.
Consider ASTDAFSSPPQGASPVPESSLTAD [F1A], for which the protein stability index turned out to be 5.73.

On to MSTDAFSSPPQGASPVPESSLTAD [F1M], for which the protein stability index was found to be 5.44.

As for SSTDAFSSPPQGASPVPESSLTAD [F1S], the protein stability index came to 5.65.

Turning to RSTDAFSSPPQGASPVPESSLTAD [F1R], the protein stability index was 5.39.

In the case of CSTDAFSSPPQGASPVPESSLTAD [F1C], the protein stability index is 5.07.

In the case of WSTDAFSSPPQGASPVPESSLTAD [F1W], the protein stability index came out at 5.19.

On to YSTDAFSSPPQGASPVPESSLTAD [F1Y], for which the protein stability index was 3.31.

In the case of DSTDAFSSPPQGASPVPESSLTAD [F1D], the protein stability index was determined as 5.72.

Regarding VSTDAFSSPPQGASPVPESSLTAD [F1V], the protein stability index was found to be 5.52.

On to ISTDAFSSPPQGASPVPESSLTAD [F1I], for which the protein stability index came out at 5.36.

As to KSTDAFSSPPQGASPVPESSLTAD [F1K], the protein stability index turned out to be 5.34.

For the variant TSTDAFSSPPQGASPVPESSLTAD [F1T], the protein stability index amounted to 5.55.

With GSTDAFSSPPQGASPVPESSLTAD [F1G], the protein stability index turned out to be 5.54.

For LSTDAFSSPPQGASPVPESSLTAD [F1L], the protein stability index is 5.57.

With NSTDAFSSPPQGASPVPESSLTAD [F1N], the protein stability index is 5.74.

As to ESTDAFSSPPQGASPVPESSLTAD [F1E], the protein stability index came to 5.47.

Consider HSTDAFSSPPQGASPVPESSLTAD [F1H], for which the protein stability index was 5.37.

Turning to PSTDAFSSPPQGASPVPESSLTAD [F1P], the protein stability index was determined as 5.68.

On to QSTDAFSSPPQGASPVPESSLTAD [F1Q], for which the protein stability index is 5.64.

With FSTGAFSSPPQGASPVPESSLTAD [D4G], the protein stability index was 2.71.

For the variant FSTEAFSSPPQGASPVPESSLTAD [D4E], the protein stability index worked out at 4.2.

For the variant FSTRAFSSPPQGASPVPESSLTAD [D4R], the protein stability index was found to be 2.37.

Turning to FSTKAFSSPPQGASPVPESSLTAD [D4K], the protein stability index turned out to be 2.94.

As to FSTVAFSSPPQGASPVPESSLTAD [D4V], the protein stability index came out at 3.28.

Consider FSTAAFSSPPQGASPVPESSLTAD [D4A], for which the protein stability index is 3.25.

Turning to FSTSAFSSPPQGASPVPESSLTAD [D4S], the protein stability index came to 2.82.

On to FSTTAFSSPPQGASPVPESSLTAD [D4T], for which the protein stability index stood at 2.21.

Take FSTFAFSSPPQGASPVPESSLTAD [D4F]: the protein stability index was found to be 3.06.

As to FSTMAFSSPPQGASPVPESSLTAD [D4M], the protein stability index is 2.92.

Take FSTQAFSSPPQGASPVPESSLTAD [D4Q]: the protein stability index stood at 3.28.

As to FSTHAFSSPPQGASPVPESSLTAD [D4H], the protein stability index amounted to 3.44.

Regarding FSTIAFSSPPQGASPVPESSLTAD [D4I], the protein stability index is 3.45.

For the variant FSTCAFSSPPQGASPVPESSLTAD [D4C], the protein stability index worked out at 2.76.

Take FSTYAFSSPPQGASPVPESSLTAD [D4Y]: the protein stability index amounted to 3.02.

For the variant FSTLAFSSPPQGASPVPESSLTAD [D4L], the protein stability index is 2.63.

As for FSTNAFSSPPQGASPVPESSLTAD [D4N], the protein stability index was 2.66.

Consider FSTWAFSSPPQGASPVPESSLTAD [D4W], for which the protein stability index came to 1.67.

As to FSTPAFSSPPQGASPVPESSLTAD [D4P], the protein stability index amounted to 4.29.

With FSTDNFSSPPQGASPVPESSLTAD [A5N], the protein stability index turned out to be 5.16.

On to FSTDLFSSPPQGASPVPESSLTAD [A5L], for which the protein stability index stood at 3.55.

For the variant FSTDKFSSPPQGASPVPESSLTAD [A5K], the protein stability index is 4.71.

On to FSTDTFSSPPQGASPVPESSLTAD [A5T], for which the protein stability index stood at 4.96.

For the variant FSTDPFSSPPQGASPVPESSLTAD [A5P], the protein stability index came to 4.94.

As to FSTDRFSSPPQGASPVPESSLTAD [A5R], the protein stability index came out at 4.71.

Turning to FSTDGFSSPPQGASPVPESSLTAD [A5G], the protein stability index stood at 4.76.

In the case of FSTDDFSSPPQGASPVPESSLTAD [A5D], the protein stability index stood at 5.61.

Consider FSTDYFSSPPQGASPVPESSLTAD [A5Y], for which the protein stability index was found to be 2.33.

For the variant FSTDHFSSPPQGASPVPESSLTAD [A5H], the protein stability index stood at 4.59.

On to FSTDSFSSPPQGASPVPESSLTAD [A5S], for which the protein stability index was determined as 4.68.

In the case of FSTDEFSSPPQGASPVPESSLTAD [A5E], the protein stability index amounted to 4.8.

As for FSTDFFSSPPQGASPVPESSLTAD [A5F], the protein stability index amounted to 2.03.

Turning to FSTDIFSSPPQGASPVPESSLTAD [A5I], the protein stability index was determined as 3.79.

As for FSTDQFSSPPQGASPVPESSLTAD [A5Q], the protein stability index is 4.88.

Turning to FSTDVFSSPPQGASPVPESSLTAD [A5V], the protein stability index amounted to 4.18.

On to FSTDMFSSPPQGASPVPESSLTAD [A5M], for which the protein stability index was determined as 4.56.

For the variant FSTDWFSSPPQGASPVPESSLTAD [A5W], the protein stability index was 1.92.

With FSTDCFSSPPQGASPVPESSLTAD [A5C], the protein stability index is 4.07.

For FSTDAFESPPQGASPVPESSLTAD [S7E], the protein stability index came out at 5.35.

As for FSTDAFASPPQGASPVPESSLTAD [S7A], the protein stability index was 2.98.

With FSTDAFISPPQGASPVPESSLTAD [S7I], the protein stability index amounted to 2.66.

As to FSTDAFDSPPQGASPVPESSLTAD [S7D], the protein stability index was 5.47.

In the case of FSTDAFFSPPQGASPVPESSLTAD [S7F], the protein stability index turned out to be 1.99.

With FSTDAFGSPPQGASPVPESSLTAD [S7G], the protein stability index was 3.89.

In the case of FSTDAFCSPPQGASPVPESSLTAD [S7C], the protein stability index was found to be 2.18.

With FSTDAFKSPPQGASPVPESSLTAD [S7K], the protein stability index amounted to 2.96.

Take FSTDAFHSPPQGASPVPESSLTAD [S7H]: the protein stability index turned out to be 2.51.

FWTDAFSSPPQGASPVPESSLTAD [S2W]: the protein stability index stood at 3.48.

In the case of FYTDAFSSPPQGASPVPESSLTAD [S2Y], the protein stability index was 4.7.

FNTDAFSSPPQGASPVPESSLTAD [S2N]: the protein stability index turned out to be 5.09.

For the variant FKTDAFSSPPQGASPVPESSLTAD [S2K], the protein stability index came to 5.08.

For the variant FGTDAFSSPPQGASPVPESSLTAD [S2G], the protein stability index was 2.8.

With FTTDAFSSPPQGASPVPESSLTAD [S2T], the protein stability index was 1.67.

Regarding FMTDAFSSPPQGASPVPESSLTAD [S2M], the protein stability index worked out at 3.32.

For FCTDAFSSPPQGASPVPESSLTAD [S2C], the protein stability index stood at 2.46.

As for FITDAFSSPPQGASPVPESSLTAD [S2I], the protein stability index turned out to be 1.64.

For FATDAFSSPPQGASPVPESSLTAD [S2A], the protein stability index turned out to be 2.09.

As for FETDAFSSPPQGASPVPESSLTAD [S2E], the protein stability index amounted to 5.52.

Consider FQTDAFSSPPQGASPVPESSLTAD [S2Q], for which the protein stability index amounted to 2.58.

For FHTDAFSSPPQGASPVPESSLTAD [S2H], the protein stability index stood at 2.15.

Consider FLTDAFSSPPQGASPVPESSLTAD [S2L], for which the protein stability index was found to be 3.34.

On to FFTDAFSSPPQGASPVPESSLTAD [S2F], for which the protein stability index came to 3.96.

In the case of FDTDAFSSPPQGASPVPESSLTAD [S2D], the protein stability index worked out at 5.7.

Take FRTDAFSSPPQGASPVPESSLTAD [S2R]: the protein stability index came out at 5.05.

For the variant FPTDAFSSPPQGASPVPESSLTAD [S2P], the protein stability index was found to be 3.

For FVTDAFSSPPQGASPVPESSLTAD [S2V], the protein stability index came out at 3.15.

Take FSQDAFSSPPQGASPVPESSLTAD [T3Q]: the protein stability index was 5.5.

For the variant FSNDAFSSPPQGASPVPESSLTAD [T3N], the protein stability index was 4.84.

On to FSMDAFSSPPQGASPVPESSLTAD [T3M], for which the protein stability index came to 3.37.

FSRDAFSSPPQGASPVPESSLTAD [T3R]: the protein stability index turned out to be 4.91.

For the variant FSFDAFSSPPQGASPVPESSLTAD [T3F], the protein stability index was found to be 4.6.

In the case of FSYDAFSSPPQGASPVPESSLTAD [T3Y], the protein stability index came to 4.46.

On to FSIDAFSSPPQGASPVPESSLTAD [T3I], for which the protein stability index is 4.4.

As for FSKDAFSSPPQGASPVPESSLTAD [T3K], the protein stability index worked out at 4.93.

As for FSSDAFSSPPQGASPVPESSLTAD [T3S], the protein stability index is 2.95.
